Our source for the Km, kcat and kcat/Km values is publication PMC3911823 (The FEBS journal, 2011).

Holding throughout (type): biochemical, rabbit (Oryctolagus cuniculus)
Substrate in data set [1]: COc1ccc2c(C(F)(F)F)cc(=O)oc2c1
To be noted: other: 2B4 E474Q; Michaelis-Menten fit; 37.0 °C.

Substrate in data set [2]: CCOc1ccc2c(C(F)(F)F)cc(=O)oc2c1
Particulars: other: 2B4 E474Q; Michaelis-Menten fit; 37.0 °C.

Substrate in data set [3]: COc1ccc2c(C(F)(F)F)cc(=O)oc2c1
To be noted: other: 2B4 H172Q; Michaelis-Menten fit; 37.0 °C.

Substrate in data set [4]: CCOc1ccc2c(C(F)(F)F)cc(=O)oc2c1
To be noted: other: 2B4 H172Q; Michaelis-Menten fit; 37.0 °C.

Substrate in data set [5]: COc1ccc2c(C(F)(F)F)cc(=O)oc2c1
To be noted: other: 2B4 E474D; Michaelis-Menten fit; 37.0 °C.

Substrate in data set [6]: CCOc1ccc2c(C(F)(F)F)cc(=O)oc2c1
To be noted: other: 2B4 E474D; Michaelis-Menten fit; 37.0 °C.

Substrate in data set [7]: COc1ccc2c(C(F)(F)F)cc(=O)oc2c1
Particulars: other: 2B4 L437A; Michaelis-Menten fit; 37.0 °C.

Substrate in data set [8]: CCOc1ccc2c(C(F)(F)F)cc(=O)oc2c1
Particulars: other: 2B4 L437A; Michaelis-Menten fit; 37.0 °C.

Substrate in data set [9]: COc1ccc2c(C(F)(F)F)cc(=O)oc2c1
To be noted: other: 2B4 H172A; Michaelis-Menten fit; 37.0 °C.

Substrate in data set [10]: CCOc1ccc2c(C(F)(F)F)cc(=O)oc2c1
To be noted: other: 2B4 H172A; Michaelis-Menten fit; 37.0 °C.

Substrate in data set [11]: COc1ccc2c(C(F)(F)F)cc(=O)oc2c1
Particulars: other: 2B4 WT; substrate O-dealkylation, Michaelis-Menten fit; 37.0 °C.

Substrate in data set [12]: CCOc1ccc2c(C(F)(F)F)cc(=O)oc2c1
Particulars: other: 2B4 WT; substrate O-dealkylation, Michaelis-Menten fit; 37.0 °C.

Numbering of substitutions follows the chain as printed. Names and notes keep the numbering of the source. Like-named read-outs stand apart in the source and are kept apart here.

B1: P450 2B4 E474Q (Oryctolagus cuniculus; E474Q) (protein)
chain: MAKKTSSKGKLPPGPSPLPVLGNLLQMDRKGLLRSFLRLREKYGDVFTVYLGSRPVVVLCGTDAIREALVDQAEAFSGRGKIAVVDPIFQGYGVIFANGERWRALRRFSLATMRDFGMGKRSVEERIQEEARCLVEELRKSKGALLDNTLLFHSITSNIICSIVFGKRFDYKDPVFLRLLDLFFQSFSLISSFSSQVFELFPGFLKHFPGTHRQIYRNLQEINTFIGQSVEKHRATLDPSNPRDFIDVYLLRMEKDKSDPSSEFHHQNLILTVLSLFFAGTETTSTTLRYGFLLMLKYPHVTERVQKEIEQVIGSHRPPALDDRAKMPYTDAVIHEIQRLGDLIPFGVPHTVTKDTQFRGYVIPKNTEVFPVLSSALHDPRYFETPNTFNPGHFLDANGALKRNEGFMPFSLGKRICLGEGIARTELFLFFTTILQNFSIASPVPPEDIDLTPRQSGVGNVPPSYQIRFLAR
What is called Km is the concentration of substrate that gives half-maximal velocity. What is called kcat is the maximal rate divided by the concentration of active sites. The term kcat/Km denotes the turnover number divided by the Michaelis constant. As to B1, in data set [1], the Km is 178 ± 17 µM and the kcat came out at 0.04 ± 0.005 s⁻¹. Moreover, in data set [2], the Km is 64 ± 8 µM, the kcat is 0.02 ± 0.0033 s⁻¹ and the kcat/Km came to 333 M⁻¹ s⁻¹.

B2: P450 2B4 H172Q (Oryctolagus cuniculus; H172Q) (protein)
chain: B1 chain with H153Q, Q455E
In the case of B2, in [3], the Km is 115 ± 15 µM, the kcat was found to be 0.123 ± 0.0083 s⁻¹ and the kcat/Km was 1000 M⁻¹ s⁻¹. In [4], the Km was determined as 48 ± 6 µM, the kcat came to 0.0283 ± 0.005 s⁻¹ and the kcat/Km was found to be 667 M⁻¹ s⁻¹.

B3: P450 2B4 E474D (Oryctolagus cuniculus; E474D) (protein)
chain: B1 chain with Q455D
In the case of B3, in data set [5], the Km turned out to be 185 ± 14 µM, the kcat was found to be 0.0633 ± 0.0033 s⁻¹ and the kcat/Km is 333 M⁻¹ s⁻¹. Moreover, in data set [6], the Km worked out at 77 ± 10 µM and the kcat was 0.0067 ± 0.0017 s⁻¹.

B4: P450 2B4 L437A (Oryctolagus cuniculus; L437A) (protein)
chain: B1 chain with L418A, Q455E
For B4, in data set [7], the Km came to 85 ± 8 µM, the kcat was 0.03 ± 0.0033 s⁻¹ and the kcat/Km was 333 M⁻¹ s⁻¹. In data set [8], the Km was determined as 25 ± 4 µM, the kcat was 0.045 ± 0.0033 s⁻¹ and the kcat/Km worked out at 2000 M⁻¹ s⁻¹.

B5: P450 2B4 H172A (Oryctolagus cuniculus; H172A) (protein)
chain: B1 chain with H153A, Q455E
For the protein B5, in [9], the Km came to 126 ± 11 µM, the kcat worked out at 0.0867 ± 0.01 s⁻¹ and the kcat/Km came to 667 M⁻¹ s⁻¹. Further, in data set [10], the Km stood at 26 ± 4 µM, the catalytic constant (kcat) was found to be 0.07 ± 0.005 s⁻¹ and the kcat/Km turned out to be 2500 M⁻¹ s⁻¹.

B6: P450 2B4 wild type (Oryctolagus cuniculus) (protein)
chain: B1 chain with Q455E
Regarding B6, in data set [11], the Km amounted to 132 ± 6 µM, the kcat was 0.188 ± 0.0033 s⁻¹ and the kcat/Km is 1330 M⁻¹ s⁻¹. In addition, in data set [12], the Km was 25 ± 3 µM, the kcat is 0.16 ± 0.0067 s⁻¹ and the kcat/Km was found to be 6000 M⁻¹ s⁻¹.
